Consider 1 molecule from article PMC12153344, “Deciphering the role of accessory proteins in Arabidopsis chloroplast editosomes via interaction with a synthetic PPR-PLS factor in E. coli”.

One series deals with T1, MBP-ORRM1 (Arabidopsis, UniProt Q8L440 55-374).
T1 sequence: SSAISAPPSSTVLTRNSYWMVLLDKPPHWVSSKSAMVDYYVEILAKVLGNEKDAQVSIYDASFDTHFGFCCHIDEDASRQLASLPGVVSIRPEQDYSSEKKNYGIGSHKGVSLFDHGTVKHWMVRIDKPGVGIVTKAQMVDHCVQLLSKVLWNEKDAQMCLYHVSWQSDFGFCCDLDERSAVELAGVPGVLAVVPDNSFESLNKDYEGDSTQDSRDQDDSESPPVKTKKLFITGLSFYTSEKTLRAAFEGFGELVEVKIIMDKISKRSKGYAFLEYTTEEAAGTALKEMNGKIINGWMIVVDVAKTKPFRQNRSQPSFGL
The experiment in a line: EMSA; MBP-ORRM1; no shift after many purification attempts; REMSA following Royan et al. (2021), binding buffer, pH and temperature not given in the material; proteins stored in 25 mM Tris-HCl pH 7.2, 250 mM NaCl, 20% glycerol, 0.5 mM EDTA, 1 mM DTT. The conditions noted are these: protein: recombinant; tags: N-terminal MBP; label: 5'-Cy5; single strand.

Another series deals with T2, dsn3PLS-DYW (synthetic construct (design of Royan et …, UniProt UPI0040747504 1-612)).
T2 chain: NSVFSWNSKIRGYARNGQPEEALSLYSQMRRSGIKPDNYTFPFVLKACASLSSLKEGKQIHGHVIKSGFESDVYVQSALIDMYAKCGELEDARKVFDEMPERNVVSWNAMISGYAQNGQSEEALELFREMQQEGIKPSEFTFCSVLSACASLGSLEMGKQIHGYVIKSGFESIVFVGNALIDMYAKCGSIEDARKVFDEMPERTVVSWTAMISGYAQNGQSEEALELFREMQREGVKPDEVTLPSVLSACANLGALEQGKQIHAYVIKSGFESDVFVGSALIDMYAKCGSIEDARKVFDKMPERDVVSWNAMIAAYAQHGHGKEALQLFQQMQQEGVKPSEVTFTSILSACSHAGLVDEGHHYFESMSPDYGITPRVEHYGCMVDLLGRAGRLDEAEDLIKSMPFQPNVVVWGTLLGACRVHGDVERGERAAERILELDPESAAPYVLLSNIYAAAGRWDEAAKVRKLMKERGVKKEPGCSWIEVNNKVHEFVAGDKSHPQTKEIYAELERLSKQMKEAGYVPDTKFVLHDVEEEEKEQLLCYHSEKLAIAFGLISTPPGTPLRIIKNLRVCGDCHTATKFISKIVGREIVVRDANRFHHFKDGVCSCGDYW
The experiment in a line: EMSA; dsn3PLS-DYW alone; Kd estimated, value only in figure; REMSA following Royan et al. (2021), binding buffer, pH and temperature not given in the material; proteins stored in 25 mM Tris-HCl pH 7.2, 250 mM NaCl, 20% glycerol, 0.5 mM EDTA, 1 mM DTT. The conditions noted are these: protein: recombinant; tags: N-terminal thioredoxin (109 aa)-6xHis, 133 aa tag in total (pETM20); label: 5'-Cy5; single strand.

Consider AUGUAUUACACGUGCAAAAUCUGAGA (ssRNA) [rpoA_REMSA], for which the results for the binding result with MBP-ORRM1 and with dsn3PLS-DYW were “no binding” and “binds”, respectively.
